Laboratory results published in the supplement of paper PMC10567573.

B1: PLAGL1 (parent)
chain: CKDFLCQFCAQRFGRKDHLTRHTK
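Further: lentivirally expressed fusions sorted by FACS into six bins by GFP to DsRed ratio, PSI derived from sequencing read proportions per bin multiplied by bin number.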

Variants of: B1
Test: protein stability index of a GFP-peptide fusion (GPS, HEK-293T) (PSI 1-6); higher = more stable
Settings: c terminus: a fixed tail appended
F4N gave a protein stability index of 2.64. Variant F4V has a protein stability index of 1.27. F4I gave a protein stability index of 1.54. Variant F4Q has a protein stability index of 2.34. F4S showed a protein stability index of 2.23. In the case of F4K, the protein stability index is reported as 2.41. With F4T the protein stability index was 2.35. Variant F4P has a protein stability index of 2.37. Work on F4D yielded a protein stability index of 1.76. Work on F4R yielded a protein stability index of 2.4. F4A showed a protein stability index of 2.05. With F4L the protein stability index was 1.41. With F4C the protein stability index was 1.97. For F4Y, the protein stability index was 1.36. For F4H, the protein stability index was 1.58. In the case of F4E, the protein stability index is reported as 2.56. F4M gave a protein stability index of 2.21. In the case of F4G, the protein stability index is reported as 2.02. Work on D3Y yielded a protein stability index of 2.11. D3W showed a protein stability index of 1.73. In the case of C6W, the protein stability index is reported as 1.78. C6N showed a protein stability index of 1.76. C6G gave a protein stability index of 1.84. For C6E, the protein stability index was 2.63. With C6M the protein stability index was 1.48. Variant C6P has a protein stability index of 2.38. Variant C6H has a protein stability index of 2.25. C6A gave a protein stability index of 2.18. With C6K the protein stability index was 1.4. In the case of C6Y, the protein stability index is reported as 2.1. Work on C6Q yielded a protein stability index of 2.34. In the case of C6T, the protein stability index is reported as 2.04. With C6D the protein stability index was 2.17. Variant C6F has a protein stability index of 1.78. Variant C6R has a protein stability index of 1.41. Variant C6L has a protein stability index of 1.99. C6I gave a protein stability index of 1.62. Variant C6S has a protein stability index of 1.58. Work on C6V yielded a protein stability index of 1.89. Work on A10T yielded a protein stability index of 1.96. In the case of A10P, the protein stability index is reported as 2.03. A10E showed a protein stability index of 1.69. A10S showed a protein stability index of 2.24. With A10G the protein stability index was 1.79. For A10L, the protein stability index was 1.79. A10C showed a protein stability index of 2.19. Work on A10N yielded a protein stability index of 1.96. With A10V the protein stability index was 2.16. In the case of A10Q, the protein stability index is reported as 1.44. A10M gave a protein stability index of 1.65. Work on A10F yielded a protein stability index of 1.96. A10H showed a protein stability index of 1.9. Variant A10R has a protein stability index of 2.14. A10W showed a protein stability index of 1.67. For A10D, the protein stability index was 1.87. In the case of A10Y, the protein stability index is reported as 2.16. Work on A10I yielded a protein stability index of 1.83. A10K gave a protein stability index of 2.48. Work on Q7A yielded a protein stability index of 2.38. Work on Q7M yielded a protein stability index of 2.29. Q7E showed a protein stability index of 2.25. In the case of Q7F, the protein stability index is reported as 1.74. With Q7N the protein stability index was 1.74. Q7T showed a protein stability index of 2.35. In the case of Q7G, the protein stability index is reported as 2.09. For Q7P, the protein stability index was 2.23. Q7R gave a protein stability index of 2.08. Q7D gave a protein stability index of 2.2. Work on Q7S yielded a protein stability index of 1.76. Q7K gave a protein stability index of 2.21. Q7Y gave a protein stability index of 2.06. Work on Q7H yielded a protein stability index of 1.96. In the case of Q7C, the protein stability index is reported as 1.52. In the case of Q7W, the protein stability index is reported as 2.57. With Q7V the protein stability index was 2.02. With Q7L the protein stability index was 1.29. Work on C9P yielded a protein stability index of 3.17. C9E gave a protein stability index of 2. C9Q gave a protein stability index of 2.72. In the case of C9D, the protein stability index is reported as 2.11. Variant C9A has a protein stability index of 2.05. In the case of C9Y, the protein stability index is reported as 1.47. For C9I, the protein stability index was 2.56. With C9S the protein stability index was 2.03. C9V gave a protein stability index of 2.46. In the case of C9H, the protein stability index is reported as 2.11. With C9W the protein stability index was 2. Work on C9N yielded a protein stability index of 2.58. With C9M the protein stability index was 1.79. Work on C9L yielded a protein stability index of 2.22. With C9T the protein stability index was 1.93. C9F showed a protein stability index of 1.11. Work on C9G yielded a protein stability index of 2.14. With C9R the protein stability index was 1.45. Work on C9K yielded a protein stability index of 2.42. Q11I gave a protein stability index of 1.82. Q11Y gave a protein stability index of 1.51. Work on Q11H yielded a protein stability index of 1.67. Variant Q11F has a protein stability index of 1.82. Variant Q11S has a protein stability index of 3.17. For Q11C, the protein stability index was 1.85. With Q11R the protein stability index was 2.3. Work on Q11A yielded a protein stability index of 1.84. In the case of Q11V, the protein stability index is reported as 2.04. Q11K gave a protein stability index of 2.02. Variant Q11D has a protein stability index of 1.75. In the case of Q11T, the protein stability index is reported as 1.75. Variant Q11L has a protein stability index of 2.29. With Q11E the protein stability index was 2.14. Work on Q11P yielded a protein stability index of 2.07. For Q11G, the protein stability index was 2.44. Variant Q11M has a protein stability index of 2.22. For Q11N, the protein stability index was 2.01. Variant Q11W has a protein stability index of 1.76. With R12G the protein stability index was 2.54. In the case of R12L, the protein stability index is reported as 1.47. R12M showed a protein stability index of 1.94. R12A gave a protein stability index of 1.97. With R12K the protein stability index was 3.04. For R12N, the protein stability index was 2.22. In the case of R12H, the protein stability index is reported as 2.38. With R12Q the protein stability index was 1.23. For R12C, the protein stability index was 2.86. R12E gave a protein stability index of 2.13. In the case of R12P, the protein stability index is reported as 1.81. R12I showed a protein stability index of 2.6. R12F gave a protein stability index of 1.68. R12D gave a protein stability index of 1.65. Variant R12S has a protein stability index of 2.16. L5W gave a protein stability index of 1.93. Work on L5P yielded a protein stability index of 2.87. With L5V the protein stability index was 1.36. In the case of L5H, the protein stability index is reported as 1.89. Work on L5R yielded a protein stability index of 1.43. For L5A, the protein stability index was 2.02. Work on L5Y yielded a protein stability index of 1.82. L5I gave a protein stability index of 1.69. Work on L5F yielded a protein stability index of 2.56. With L5S the protein stability index was 2.41. Work on L5N yielded a protein stability index of 2.23. In the case of L5K, the protein stability index is reported as 2.08. Work on L5Q yielded a protein stability index of 2.01. L5C showed a protein stability index of 1.41. With L5D the protein stability index was 2.18. With L5M the protein stability index was 1.9. For L5G, the protein stability index was 2.23. For L5E, the protein stability index was 2.07. For L5T, the protein stability index was 1.81. In the case of F8H, the protein stability index is reported as 2.87. Variant F8I has a protein stability index of 1.93. F8T showed a protein stability index of 2.81. F8M gave a protein stability index of 2.19. With F8S the protein stability index was 2.19. With F8C the protein stability index was 3.64. With F8P the protein stability index was 2.47. Work on F8K yielded a protein stability index of 2.69. With F8R the protein stability index was 3.32. F8N showed a protein stability index of 2.82. For F8G, the protein stability index was 2.32. For F8D, the protein stability index was 3.12. F8Q gave a protein stability index of 2.51. With F8V the protein stability index was 2.18. F8L showed a protein stability index of 2.89. F8A showed a protein stability index of 2.94. Variant F8W has a protein stability index of 1.6. For F8Y, the protein stability index was 1.77. Work on F8E yielded a protein stability index of 2.62.
